Reference: the supplement of paper PMC12764529
± gives the half width of the 95% confidence interval.

How the values were obtained:
[1] = folding stability dG unfold from trypsin proteolysis; higher = more stable
Procedure, shortened: (§1)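 Bayesian fitting of sequencing counts gave K50 for each design. Unfolding free energy followed by setting this against a sequence-predicted unfolded-state K50 and a shared folded-state K50, either per protease or with trypsin and chymotrypsin combined. The designs, under 80 residues and lacking cysteine, were digested in a PA-tagged cDNA display format at 11 threefold-diluted protease concentrations and without protease, and only those with AlphaFold2 dimer inter-PAE above 15 were kept.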

[2] = folding stability dG unfold (combined trypsin and chymotrypsin); higher = more stable
Procedure, shortened: as §1

[3] = folding stability dG unfold from chymotrypsin proteolysis; higher = more stable
Procedure, shortened: as §1

Sequence	folding stability dG unfold [1]	folding stability dG unfold [2]	folding stability dG unfold [3]
SAGMTYTEKVFTSEVTLPEIGAKITITTTVKTPPSGETEPTVEVTFDLPETASEEVVKAVLEELNIPVESAG [r5_486_JUSTAS]	-0.411 ± 0.2 kcal/mol	0.628 ± 0.38 kcal/mol	1.13 ± 0.066 kcal/mol
SAGGMIKVEVEPLEDGVLRVRVYVPHPDGPPIEIEVVFPPEVGSLEEALEKAVEVVEEFLKKHNIPLSAGGS [r8_464_TrMRF]	2.25 ± 0.082 kcal/mol	2.36 ± 0.1 kcal/mol	2.22 ± 0.065 kcal/mol
SAGGSAGGSIPEILKKIGISPEVVTEVEVTPVEKLPDSLVVKVTYTYKLPNGTTETKTVTVPIGSAGGSAGG [r6_776_JUSTAS]	2.14 ± 0.091 kcal/mol	2.66 ± 0.13 kcal/mol	2.76 ± 0.034 kcal/mol
SAGGSAGGSAGGMTAKEIAEKLGLPPGAKVVKIEYDKETNTFYIVIEVDGELKTYRIDVSAGGSAGGSAGGS [r10_17_TrROS_Hall]	4.2 ± 0.14 kcal/mol	4.69 ± 0.087 kcal/mol	4.765 ± 0.037 kcal/mol
SAGGSAEVELVKVEVNPDGPYVKATFRIPGGGDVAVLVFDPDRPNTARLIVRPPNNEPIAEIELPLSAGGSA [r15_974_TrMRF]	1.52 ± 0.046 kcal/mol	1.65 ± 0.2 kcal/mol	1.83 ± 0.28 kcal/mol
SAGGSAGGSAGGMIKTEDGYEVEIKIEVEEIPLPEGMSEEEKEKLKKIRIIRIEIKVTKKSAGGSAGGSAGG [r7_324_TrROS_Hall]	1.67 ± 0.12 kcal/mol	2.26 ± 0.36 kcal/mol	2.5 ± 0.33 kcal/mol
SAGMTIEVEYTFPPGNPEEAEKRAEEIAEELKPKPLPNITIEISREPVVDPNSDATTTRYTFTITAEPKSAG [r5_49_JUSTAS]	0.821 ± 0.051 kcal/mol	1.02 ± 0.19 kcal/mol	1.19 ± 0.14 kcal/mol
SAGGMAEEVAEAVRDFFESQGLPAEVEPLSVHPNNLVVYRFRVPGYYALVVADPDNPVVVVTVYPLPSAGGS [r8_157_TrMRF]	2.46 ± 0.13 kcal/mol	3.08 ± 0.14 kcal/mol	3.45 ± 0.049 kcal/mol
SMYRIRLPSNKVFTIDVPPDGTVEITLPNGKKLTLKLESEEDILALAEILSKLFPDDPAEIEPIPLEYYRSA [r9_1206_TrMRF]	1.24 ± 0.042 kcal/mol	1.4 ± 0.092 kcal/mol	1.53 ± 0.19 kcal/mol
SAGGPPNGMVPIKVPIKIRFPNGHEFKIDEAYVMPNGMVMIEMTHTDPDDKKEKFPFMIPPDNLEIVSAGGS [r16_498_TrROS]	2.41 ± 0.15 kcal/mol	1.86 ± 0.19 kcal/mol	1.59 ± 0.096 kcal/mol
SAGGSAGGELEELPGLKVVAVFELPGNRRLVLFEAEGGRYLLLVEGEGTRLVPVPEDVSLEELASAGGSAGG [r6_680_TrMRF]	2.73 ± 0.043 kcal/mol	3.179 ± 0.03 kcal/mol	3.394 ± 0.031 kcal/mol
SAGKMVKVEIVIDVPPEEITEEELKAILEEEAEEVEITFDEETGKITITVTVSEEEAEKLREALKELGASAG [r5_378_TrROS_Hall]	1.02 ± 0.13 kcal/mol	1.3 ± 0.26 kcal/mol	1.04 ± 0.13 kcal/mol
SAGGSAGGSAGSPVVTTEKVKTEGNTTVYRVTEPALNTETLVTEDAGANPTIKTTTYNTPSAGGSAGGSAGG [r11_738_JUSTAS]	-0.955 ± 0.21 kcal/mol	-0.747 ± 0.24 kcal/mol	-0.937 ± 0.83 kcal/mol
SAGGSAGGPIVLKFPSPEDLEKAIEIATAHGYEIELNPESGTLVINATGPMLEEFKKIPGLEISSAGGSAGG [r6_724_TrMRF]	2.73 ± 0.12 kcal/mol	2.72 ± 0.092 kcal/mol	2.66 ± 0.041 kcal/mol
SAGGSAGGSMPVVVEPTTIGDIEVTRVVLPDGTVVVYTKAPTTLKVTYRPLATGEEEEEVFPELSAGGSAGG [r6_555_JUSTAS]	1.01 ± 0.011 kcal/mol	1.01 ± 0.056 kcal/mol	0.829 ± 0.11 kcal/mol
SAGGSAGGPVVISVPALVKLAKELGLKLVFFPETKTVILEHPDSFLIATIDSKGNVSIAPALPESAGGSAGG [r6_155_TrMRF]	2.69 ± 0.09 kcal/mol	2.64 ± 0.091 kcal/mol	2.59 ± 0.049 kcal/mol

Sequence	folding stability dG unfold [1]	folding stability dG unfold [2]	folding stability dG unfold [3]
SAGGSAGGSAGGGSMTLELPLPEWSEEEIEALAEELKKKGLKVKEIERDPESDVVRITVESAGGSAGGSAGG [r7_906_JUSTAS]	1.79 ± 0.1 kcal/mol	2.15 ± 0.11 kcal/mol	2.28 ± 0.078 kcal/mol
SAGGSAGGSAGGSVPSVKLPKVGLKTDPVSSVLDFGEEKGDPVSVSIHLTLFLPDGTILLSAGGSAGGSAGG [r11_890_JUSTAS]	0.161 ± 0.082 kcal/mol	0.672 ± 0.17 kcal/mol	0.881 ± 0.12 kcal/mol
SAKKITLTPPNGKKITITVHPDGSITITYEKGKITLPGHPGAKIKKATVDPKKGYITIIVNDKPIVIPISAG [r14_276_TrMRF]	1.66 ± 0.044 kcal/mol	2.39 ± 0.12 kcal/mol	2.83 ± 0.071 kcal/mol
SAGGSAEEELLKAIKEALEKAKEGETVELEITLEDGSTLRITFDAENGKITVTLPNGEKLELTIEPSAGGSA [r15_977_TrROS_Hall]	3.18 ± 0.19 kcal/mol	4.23 ± 0.16 kcal/mol	4.37 ± 0.18 kcal/mol
SAGGSAGGSAGIKIPPGQKLSIEENPDGNMEIKFPDPGQKFTIPPNAPIEVDPNNWIYIKSAGGSAGGSAGG [r17_49_TrROS]	0.00801 ± 0.33 kcal/mol	0.181 ± 0.33 kcal/mol	0.0738 ± 0.4 kcal/mol
SAGGSAGGSAGGMKVTTINLPDGTTIEYYPETGSVTIHPSDGSVSTRPDLTLEDVLAALSAGGSAGGSAGGS [r10_569_JUSTAS]	2.38 ± 0.066 kcal/mol	2.07 ± 0.051 kcal/mol	1.81 ± 0.031 kcal/mol
SAGGSAEKVEIKVTYDKETGKVTVEIRVEVDLSEEQLKKLKELAEELGLEVEVTVEVRYEPPPPKESAGGSA [r15_542_TrROS_Hall]	2.99 ± 0.38 kcal/mol	2.27 ± 0.49 kcal/mol	2.18 ± 0.31 kcal/mol
SAGGSAGGSAMPPDAKPVRTETDPATGTTTEYILYPDSDTTIRKTHLPDGSVQVEEFSVSKTSAGGSAGGSA [r18_521_JUSTAS]	-0.743 ± 0.15 kcal/mol	-0.491 ± 0.29 kcal/mol	-0.491 ± 0.17 kcal/mol
SAGGSAGGSAGGPKAPGDKAVPATVEVRVTEYAVVPGLGEKLEKLPEKTFKATFVFFNKSAGGSAGGSAGGS [r10_122_TrMRF]	-0.48 ± 0.26 kcal/mol	0.286 ± 0.092 kcal/mol	0.611 ± 0.11 kcal/mol
SAGGSAGGSAMTPVTIKVTLTNPATGSTTTKTIYVPEPNPSVEEIKKKLPSDWTVTSITLSSAGGSAGGSAG [r3_80_JUSTAS]	1.23 ± 0.045 kcal/mol	1.07 ± 0.16 kcal/mol	0.828 ± 0.16 kcal/mol
SMKVIIIERPDESGVPVVIVLPEEEALELYRKLFNVPMSVEEFAEKLKELNPNVKVEVVPLEEVSEEVLLSA [r9_1085_JUSTAS]	2.23 ± 0.086 kcal/mol	2.35 ± 0.18 kcal/mol	2.28 ± 0.058 kcal/mol
SAGGSAGGSKIKIYPYSTKGKNEVYYLIETENNYLYIKVTIYYDPKTGKPVKIEIKEIFTLPKSAGGSAGGS [r12_70_TrMRF]	2.44 ± 0.09 kcal/mol	2.57 ± 0.26 kcal/mol	3.07 ± 0.12 kcal/mol
SAGGSAGGGPPLPPPVLVLPARVERVFYDPVTGELTVETVDFPVVIRPDGSVYLGDRWIPPELLSAGGSAGG [r6_514_TrMRF]	1.23 ± 0.046 kcal/mol	1.61 ± 0.2 kcal/mol	1.85 ± 0.12 kcal/mol
SAGGSAGGSLKKGEKVKLRARIYEPGGGKLLAELEIEADVGKAEEIAEELRKAFPGYEVEIELSAGGSAGGS [r12_21_TrMRF]	2.67 ± 0.036 kcal/mol	3.04 ± 0.07 kcal/mol	3.24 ± 0.057 kcal/mol
SAYIQIERDPDGYIKIEVWFDSPDEGKEFVKEFVKELADQGLDIKIKVTKIEPYPGDPNMYRVSYTIKVSAG [r14_119_TrROS]	2.76 ± 0.098 kcal/mol	3.52 ± 0.083 kcal/mol	3.857 ± 0.038 kcal/mol
